The values that follow are results of earlier work, collected in publication PMC4411102 (PLoS ONE, 2015).

This data set has as its system HIV. The source says: HIV-1 infection can be targeted at various stages, for example, viral entry, viral replication or assembly of viral components. HIV entry into the host cells is facilitated by binding of viral envelope glycoprotein (gp120) to host CD4 receptor [3, 4]. CD4-gp120 interaction initiates a cascade of events that stimulates gp41 to promote viral and host membrane fusion. Inhibition of gp120-CD4 interaction or virus-host cell fusion thus appears to be an attractive strategy to prevent HIV-1 infection. Towards this, significant advances have been made. […] Moreover, some of the AMPs cause adverse effects on vaginal commensals like lactobacilli which are required to maintain low pH in vaginal mucosa.

B1: human defensin-5: antimicrobial peptide (peptide, UniProt Q01523 20-94, looked up)
Defensin alpha 5: ESLQERADEATTQKQSGEDNQDLAISFAGNGLSALRTSGSQARATCYCRTGRCATRESLSGVCEISGRLYRLCCR
modifications: Defensin-5
notes: antimicrobial peptide
Regarding B1, the “Effect on HIV infection” value is given as “exacerbate HIV infection”.

B2: secretory leucocyte protease inhibitor (SLPI): natural antimicrobial peptide (protein, UniProt P03973 26-132, looked up)
Antileukoproteinase: SGKSFKAGVCPPKKSAQCLRYKKPECQSDWQCPGKKRCCPDTCGIKCLDPVDTPNPTRRKPGKCPVTYGQCLMLNPPNFCEMDGQCKRDLKCCMGMCGKSCVSPVKA
As to B2, the Anti-HIV activity result is recorded as “reported to have anti-HIV activity”.
